Results as given in the RNAGym collection of RNA variant scans (doi:10.1021/acssynbio.7b00057).

B1: Pistol ribozyme (parent)
chain: GGGUCGUUGUUCCAUAAUCGCGUGGAUAUGGCACGCAAGUUUCUACCGGGCACCGUAAAUGUCCGACUGGAGCCGUUCGGGCGGCUAUAAACAGACCUCAGGCCCGAAGCGUGGCGGCACCUGCCGCCGGUGGUAAAAAAGAUCGGAAGAGCACACGUCU

Variants of: B1
Experiment: aptazyme ON/OFF ratio, guanine; higher = stronger switching; co-transcriptional cleavage with and without guanine

Going from GGGUCGAUCCUCAAUAAUCGCGUGGAUAUGGCACGCAAGUUUCUACCGGGCACCGUAAAUGUCCGACUGGAGCCGUUCGGGCGGCUAUAAACAGACCUCAGGCCCGAAGCGUGGCGGCACCUGCCGCCGGUGGUAAAAAAGAUCGGAAGAGCACACGUCU [U7A G9C U10C C13A] to GGGUCGAUCCUCGAUAAUCGCGUGGAUAUGGCACGCAAGUUUCUACCGGGCACCGUAAAUGUCCGACUGGAGCCGUUCGGGCGGCUAUAAACAGACCUCAGGCCCGAAGCGUGGCGGCACCUGCCGCCGGUGGUAAAAAAGAUCGGAAGAGCACACGUCU [U7A G9C U10C C13G], the “aptazyme ON/OFF ratio” value rises from 1.01 to 1.05.

Compared with GGGUCGAUCCUCUAUAAUCGCGUGGAUAUGGCACGCAAGUUUCUACCGGGCACCGUAAAUGUCCGACUGGAGCCGUUCGGGCGGCUAUAAACAGACCUCAGGCCCGAAGCGUGGCGGCACCUGCCGCCGGUGGUAAAAAAGAUCGGAAGAGCACACGUCU [U7A G9C U10C C13U], GGGUCGAUCCACCAUAAUCGCGUGGAUAUGGCACGCAAGUUUCUACCGGGCACCGUAAAUGUCCGACUGGAGCCGUUCGGGCGGCUAUAAACAGACCUCAGGCCCGAAGCGUGGCGGCACCUGCCGCCGGUGGUAAAAAAGAUCGGAAGAGCACACGUCU [U7A G9C U10C U11A] is lower in “aptazyme ON/OFF ratio” value: 1.22 for the first, 1.07 for the second.

Compared with GGGUCGAUCCUGAAUAAUCGCGUGGAUAUGGCACGCAAGUUUCUACCGGGCACCGUAAAUGUCCGACUGGAGCCGUUCGGGCGGCUAUAAACAGACCUCAGGCCCGAAGCGUGGCGGCACCUGCCGCCGGUGGUAAAAAAGAUCGGAAGAGCACACGUCU [U7A G9C U10C C12G C13A], GGGUCGAUCCUGGAUAAUCGCGUGGAUAUGGCACGCAAGUUUCUACCGGGCACCGUAAAUGUCCGACUGGAGCCGUUCGGGCGGCUAUAAACAGACCUCAGGCCCGAAGCGUGGCGGCACCUGCCGCCGGUGGUAAAAAAGAUCGGAAGAGCACACGUCU [U7A G9C U10C C12G C13G] is higher in “aptazyme ON/OFF ratio” value: 1.03 for the first, 1.07 for the second.

Compared with GGGUCGAUCCUGUAUAAUCGCGUGGAUAUGGCACGCAAGUUUCUACCGGGCACCGUAAAUGUCCGACUGGAGCCGUUCGGGCGGCUAUAAACAGACCUCAGGCCCGAAGCGUGGCGGCACCUGCCGCCGGUGGUAAAAAAGAUCGGAAGAGCACACGUCU [U7A G9C U10C C12G C13U], GGGUCGAUCCUUUAUAAUCGCGUGGAUAUGGCACGCAAGUUUCUACCGGGCACCGUAAAUGUCCGACUGGAGCCGUUCGGGCGGCUAUAAACAGACCUCAGGCCCGAAGCGUGGCGGCACCUGCCGCCGGUGGUAAAAAAGAUCGGAAGAGCACACGUCU [U7A G9C U10C C12U C13U] is higher in “aptazyme ON/OFF ratio” value: 1.05 for the first, 1.06 for the second.

Compared with GGGUCGAUCCUUAAUAAUCGCGUGGAUAUGGCACGCAAGUUUCUACCGGGCACCGUAAAUGUCCGACUGGAGCCGUUCGGGCGGCUAUAAACAGACCUCAGGCCCGAAGCGUGGCGGCACCUGCCGCCGGUGGUAAAAAAGAUCGGAAGAGCACACGUCU [U7A G9C U10C C12U C13A], GGGUCGAUCCUUGAUAAUCGCGUGGAUAUGGCACGCAAGUUUCUACCGGGCACCGUAAAUGUCCGACUGGAGCCGUUCGGGCGGCUAUAAACAGACCUCAGGCCCGAAGCGUGGCGGCACCUGCCGCCGGUGGUAAAAAAGAUCGGAAGAGCACACGUCU [U7A G9C U10C C12U C13G] is lower in “aptazyme ON/OFF ratio” value: 1.04 for the first, 1.01 for the second.

Going from GGGUCGAUCCAACAUAAUCGCGUGGAUAUGGCACGCAAGUUUCUACCGGGCACCGUAAAUGUCCGACUGGAGCCGUUCGGGCGGCUAUAAACAGACCUCAGGCCCGAAGCGUGGCGGCACCUGCCGCCGGUGGUAAAAAAGAUCGGAAGAGCACACGUCU [U7A G9C U10C U11A C12A] to GGGUCGAUCCUCCAUAAUCGCGUGGAUAUGGCACGCAAGUUUCUACCGGGCACCGUAAAUGUCCGACUGGAGCCGUUCGGGCGGCUAUAAACAGACCUCAGGCCCGAAGCGUGGCGGCACCUGCCGCCGGUGGUAAAAAAGAUCGGAAGAGCACACGUCU [U7A G9C U10C], the “aptazyme ON/OFF ratio” value rises from 1.06 to 2.21.

Going from GGGUCGAUCCUAAAUAAUCGCGUGGAUAUGGCACGCAAGUUUCUACCGGGCACCGUAAAUGUCCGACUGGAGCCGUUCGGGCGGCUAUAAACAGACCUCAGGCCCGAAGCGUGGCGGCACCUGCCGCCGGUGGUAAAAAAGAUCGGAAGAGCACACGUCU [U7A G9C U10C C12A C13A] to GGGUCGAUCCUAUAUAAUCGCGUGGAUAUGGCACGCAAGUUUCUACCGGGCACCGUAAAUGUCCGACUGGAGCCGUUCGGGCGGCUAUAAACAGACCUCAGGCCCGAAGCGUGGCGGCACCUGCCGCCGGUGGUAAAAAAGAUCGGAAGAGCACACGUCU [U7A G9C U10C C12A C13U], the “aptazyme ON/OFF ratio” value falls from 1.07 to 1.04.

Going from GGGUCGAUCCUAGAUAAUCGCGUGGAUAUGGCACGCAAGUUUCUACCGGGCACCGUAAAUGUCCGACUGGAGCCGUUCGGGCGGCUAUAAACAGACCUCAGGCCCGAAGCGUGGCGGCACCUGCCGCCGGUGGUAAAAAAGAUCGGAAGAGCACACGUCU [U7A G9C U10C C12A C13G] to GGGUCGAUCCUUCAUAAUCGCGUGGAUAUGGCACGCAAGUUUCUACCGGGCACCGUAAAUGUCCGACUGGAGCCGUUCGGGCGGCUAUAAACAGACCUCAGGCCCGAAGCGUGGCGGCACCUGCCGCCGGUGGUAAAAAAGAUCGGAAGAGCACACGUCU [U7A G9C U10C C12U], the “aptazyme ON/OFF ratio” value rises from 1.04 to 1.17.

Going from GGGUCGAUCCUGCAUAAUCGCGUGGAUAUGGCACGCAAGUUUCUACCGGGCACCGUAAAUGUCCGACUGGAGCCGUUCGGGCGGCUAUAAACAGACCUCAGGCCCGAAGCGUGGCGGCACCUGCCGCCGGUGGUAAAAAAGAUCGGAAGAGCACACGUCU [U7A G9C U10C C12G] to GGGUCGAUCCUACAUAAUCGCGUGGAUAUGGCACGCAAGUUUCUACCGGGCACCGUAAAUGUCCGACUGGAGCCGUUCGGGCGGCUAUAAACAGACCUCAGGCCCGAAGCGUGGCGGCACCUGCCGCCGGUGGUAAAAAAGAUCGGAAGAGCACACGUCU [U7A G9C U10C C12A], the “aptazyme ON/OFF ratio” value falls from 1.07 to 1.04.
